Data published in paper PMC3111228 (The Journal of neuroscience : the official journal of the …, 2011).
Changes are numbered by the printed parent chain. Numbers in names are those of the source. Each block holds one binder with its values, some of them ahead of it.

Biological target: recombinant CaM (calmodulin) (UniProt P0DP23 1-149)
Assay: pull-down

- binding result: binds
B1: GST-mGluR5-Cprox with EKST exchanged (domain or fragment)
chain: PERNVRSAFTTSTVVRMHVGDGKSSSAASRSSSLVNLWKRRGSSGETLSSNGKSVTWAQNRQAPRGQHLWQRLSVHINKKENPNQTAVIKPFPKSTENRGPGAAAGGGSGPGVAGAG

- binding result: binds
B2: GST-mGluR1-Cprox with mGluR5 888-EKSTRGQHL-896 in place of 901-…-909 (domain or fragment)
chain: PERNVRSAFTTSDVVRMHVGDGKLPCRSNTFLNIFRRKKPGAGNANSNGKSVSWSEPGGEKSTRGQHLWQRLSVHVKTNETACNQTAVIKPLTKSYQGSGKSLTFSDASTKTLYNVEE

- binding result: binds
B3: GST-mGluR1 V909L (domain or fragment)
chain: B2 chain with E60R, K61Q, S62A, T63P, R64K
